# Columns and labels:
# Rab7A(QL)-6xHis (human) = Rab7A(QL)-6xHis (human) (UniProt P51149); assay: liposome flotation; purified VPS13C construct with SUVs (84.8% POPC, 10% POPE, 5% DGS-NTA, 0.2% Rhodamine-PE) to which His-tagged Rab7A(QL) or ATG7 was tethered; 1 mM GTP, 2 mM Mg2+, room temperature 20 min; OptiPrep gradient, top fraction on SDS-PAGE
# [1] = target: human Rab7A-Q67L with an N-terminal Strep tag (human) (UniProt P51149); assay: pull-down; Strep-Rab7A(Q67L) and FLAG-tagged VPS13C constructs co-expressed in Expi293F; lysate in buffer A with 1 mM GTP and 2 mM MgCl2 on Strep-Tactin XT resin, 2 h at 4 °C, eluted with 50 mM biotin; SDS-PAGE with Coomassie stain and/or anti-FLAG western blot
# human Rab7A-Q67L with an N-terminal Strep tag (human), sequence (P51149 whole entry Q67L): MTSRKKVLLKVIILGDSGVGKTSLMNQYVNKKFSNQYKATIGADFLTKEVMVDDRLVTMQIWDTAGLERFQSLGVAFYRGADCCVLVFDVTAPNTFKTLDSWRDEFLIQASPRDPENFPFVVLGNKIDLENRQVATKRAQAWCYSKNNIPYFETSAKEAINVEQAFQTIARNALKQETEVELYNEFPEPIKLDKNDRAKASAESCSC
# Rab7A(QL)-6xHis (human), sequence (P51149 whole entry Q67L): as above
# VPS13C lacking the amphipathic helices of the ATG2_C motif, C-terminal 3xFLAG, sequence (Q709C8 whole entry): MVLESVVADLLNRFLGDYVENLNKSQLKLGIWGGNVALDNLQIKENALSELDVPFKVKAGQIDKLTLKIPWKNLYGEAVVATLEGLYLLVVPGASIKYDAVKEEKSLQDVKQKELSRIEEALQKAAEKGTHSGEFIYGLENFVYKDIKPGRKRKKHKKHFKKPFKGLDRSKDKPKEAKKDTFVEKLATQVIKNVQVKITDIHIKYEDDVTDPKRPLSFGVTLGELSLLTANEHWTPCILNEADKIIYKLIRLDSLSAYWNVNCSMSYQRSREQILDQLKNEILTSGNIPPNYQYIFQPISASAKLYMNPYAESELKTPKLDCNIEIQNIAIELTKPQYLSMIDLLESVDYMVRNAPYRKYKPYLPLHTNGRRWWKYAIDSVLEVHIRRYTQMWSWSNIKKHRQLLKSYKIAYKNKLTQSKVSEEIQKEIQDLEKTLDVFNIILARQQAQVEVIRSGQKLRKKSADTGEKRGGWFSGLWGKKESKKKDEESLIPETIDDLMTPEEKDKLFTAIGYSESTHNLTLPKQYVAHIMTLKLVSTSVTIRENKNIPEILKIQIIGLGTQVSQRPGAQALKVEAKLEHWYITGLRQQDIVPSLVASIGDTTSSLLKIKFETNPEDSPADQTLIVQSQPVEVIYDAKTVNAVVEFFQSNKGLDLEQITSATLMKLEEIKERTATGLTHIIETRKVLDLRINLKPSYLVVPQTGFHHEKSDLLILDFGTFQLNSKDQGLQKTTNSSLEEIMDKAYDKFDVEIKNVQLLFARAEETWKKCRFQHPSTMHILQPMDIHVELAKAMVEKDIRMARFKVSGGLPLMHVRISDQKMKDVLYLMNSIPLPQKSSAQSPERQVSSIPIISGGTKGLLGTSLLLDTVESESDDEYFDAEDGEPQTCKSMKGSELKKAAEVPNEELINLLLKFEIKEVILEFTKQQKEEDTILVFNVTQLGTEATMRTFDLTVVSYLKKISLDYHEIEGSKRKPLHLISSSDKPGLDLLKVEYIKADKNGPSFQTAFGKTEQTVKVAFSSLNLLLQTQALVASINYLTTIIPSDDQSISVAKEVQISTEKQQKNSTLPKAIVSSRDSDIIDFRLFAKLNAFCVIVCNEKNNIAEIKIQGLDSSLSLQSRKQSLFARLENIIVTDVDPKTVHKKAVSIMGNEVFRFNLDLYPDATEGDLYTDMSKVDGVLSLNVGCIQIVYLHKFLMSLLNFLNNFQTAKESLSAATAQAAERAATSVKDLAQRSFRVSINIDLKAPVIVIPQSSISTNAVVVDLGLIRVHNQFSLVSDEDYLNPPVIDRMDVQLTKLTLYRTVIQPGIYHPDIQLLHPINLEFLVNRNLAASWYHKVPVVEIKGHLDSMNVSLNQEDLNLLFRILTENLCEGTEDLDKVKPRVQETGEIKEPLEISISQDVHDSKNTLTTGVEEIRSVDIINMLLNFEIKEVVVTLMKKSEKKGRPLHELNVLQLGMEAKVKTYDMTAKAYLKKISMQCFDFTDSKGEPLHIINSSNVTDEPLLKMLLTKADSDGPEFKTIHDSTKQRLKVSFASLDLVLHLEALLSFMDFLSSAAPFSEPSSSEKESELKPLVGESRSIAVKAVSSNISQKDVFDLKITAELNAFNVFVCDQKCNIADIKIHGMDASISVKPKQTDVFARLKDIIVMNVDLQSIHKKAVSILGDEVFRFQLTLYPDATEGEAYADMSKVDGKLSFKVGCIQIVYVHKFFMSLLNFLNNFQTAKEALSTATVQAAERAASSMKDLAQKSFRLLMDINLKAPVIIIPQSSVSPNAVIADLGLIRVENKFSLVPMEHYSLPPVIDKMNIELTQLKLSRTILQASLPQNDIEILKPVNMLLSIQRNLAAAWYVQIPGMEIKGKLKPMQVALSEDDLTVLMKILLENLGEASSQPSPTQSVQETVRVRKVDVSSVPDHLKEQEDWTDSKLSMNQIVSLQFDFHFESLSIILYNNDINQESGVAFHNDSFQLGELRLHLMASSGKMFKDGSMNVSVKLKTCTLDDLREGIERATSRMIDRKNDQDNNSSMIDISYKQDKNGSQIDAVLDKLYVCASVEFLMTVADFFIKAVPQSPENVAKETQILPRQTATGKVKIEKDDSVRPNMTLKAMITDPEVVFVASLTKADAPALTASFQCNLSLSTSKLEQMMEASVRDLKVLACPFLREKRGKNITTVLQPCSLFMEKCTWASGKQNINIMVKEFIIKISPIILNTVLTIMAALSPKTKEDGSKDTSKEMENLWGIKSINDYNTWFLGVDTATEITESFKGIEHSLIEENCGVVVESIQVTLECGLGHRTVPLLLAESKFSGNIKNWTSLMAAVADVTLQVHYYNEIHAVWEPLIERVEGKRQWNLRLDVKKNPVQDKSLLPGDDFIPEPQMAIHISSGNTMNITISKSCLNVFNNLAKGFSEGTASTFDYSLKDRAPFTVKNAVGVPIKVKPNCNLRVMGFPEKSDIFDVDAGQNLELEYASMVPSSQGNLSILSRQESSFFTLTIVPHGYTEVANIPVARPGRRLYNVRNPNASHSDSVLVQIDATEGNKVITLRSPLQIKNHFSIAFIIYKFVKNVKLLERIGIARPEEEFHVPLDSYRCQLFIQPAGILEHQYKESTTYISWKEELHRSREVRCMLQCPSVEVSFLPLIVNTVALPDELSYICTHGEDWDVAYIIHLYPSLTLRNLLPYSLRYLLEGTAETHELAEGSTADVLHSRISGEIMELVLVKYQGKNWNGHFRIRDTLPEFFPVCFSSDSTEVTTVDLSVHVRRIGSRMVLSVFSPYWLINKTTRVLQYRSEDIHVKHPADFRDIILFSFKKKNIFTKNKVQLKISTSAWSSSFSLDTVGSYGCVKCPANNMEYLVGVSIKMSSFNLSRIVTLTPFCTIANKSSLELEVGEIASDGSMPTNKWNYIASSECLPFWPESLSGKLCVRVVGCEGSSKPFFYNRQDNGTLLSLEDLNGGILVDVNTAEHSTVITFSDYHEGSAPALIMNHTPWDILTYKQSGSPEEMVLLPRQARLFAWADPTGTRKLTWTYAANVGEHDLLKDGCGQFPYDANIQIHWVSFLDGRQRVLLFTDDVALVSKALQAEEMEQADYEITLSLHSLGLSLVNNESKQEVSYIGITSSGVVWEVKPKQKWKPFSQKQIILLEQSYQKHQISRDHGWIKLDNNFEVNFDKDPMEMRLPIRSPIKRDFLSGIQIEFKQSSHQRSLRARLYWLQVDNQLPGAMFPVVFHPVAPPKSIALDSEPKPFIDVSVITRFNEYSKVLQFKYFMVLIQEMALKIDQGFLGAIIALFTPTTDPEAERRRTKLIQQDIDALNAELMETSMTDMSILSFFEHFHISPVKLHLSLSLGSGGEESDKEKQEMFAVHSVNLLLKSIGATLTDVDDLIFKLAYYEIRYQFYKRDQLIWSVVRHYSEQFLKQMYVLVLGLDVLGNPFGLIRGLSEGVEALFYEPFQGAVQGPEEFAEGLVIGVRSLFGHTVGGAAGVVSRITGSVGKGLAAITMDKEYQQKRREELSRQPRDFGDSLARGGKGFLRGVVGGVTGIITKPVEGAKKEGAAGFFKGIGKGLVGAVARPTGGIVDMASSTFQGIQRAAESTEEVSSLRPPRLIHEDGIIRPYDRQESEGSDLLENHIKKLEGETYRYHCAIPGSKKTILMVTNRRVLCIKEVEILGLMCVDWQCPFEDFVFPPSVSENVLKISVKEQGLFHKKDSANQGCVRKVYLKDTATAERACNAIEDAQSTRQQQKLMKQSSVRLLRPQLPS
percent co-floated with SUVs bearing His-tagged Rab7A (Rab7A(QL)-6xHis (human)),fraction of total overexpressed VPS13C retained by Rab7(Q67L) [1],Substance
> 80%,,"VPS13C lacking the amphipathic helices of the ATG2_C motif, C-terminal 3xFLAG (from UniProt Q709C8 1-3753) (natural protein)"
,5%,"full-length human VPS13C with a C-terminal 3xFLAG tag, Q709C8 1-3753"
